Laboratory results from patent US20240409617A1 (published 2024).

B1: Ab 17 (scFv, V domains shown)
VH: QVQLVQSGGGVVQPGRSLRLSCAASGFTFDDYAMHWVRQVPGKGLEWVSGIDWNSGVIGYADSVKGRFTISRDNVKNSLYLQMNSLRTEDSALYYCAKDIGPGGSGSYYAFDIWGQGTTVTVSS
VL: QSALTQPASVSGSPGQSITISCTGTSSDVGGSKYVSWYQQHPGKAPKVMIYDVTKRPSGVPDRFSGSKSGNTASLTISGLQAEDEADYYCAAWDDSLNGVVFGGGTKLTVL
B2: Ab 21 (scFv, V domains shown)
VH: QVQLVQSGGGLVQPGGSLRLSCATSGFTFDDYAMHWVRQAPGKGLEWVSGISWNSGSIGYVDSVKGRFTISRDNRNNKVYLQMNNLRAEDTAVYYCARDWWGSIDHWGLGTLVTVSS
VL: QSALTQPRSVSGSPGQSVTISCTGTSSDVGGYDYVSWYQQHPGKAPKLIIYDVSKRPSGVPDRFSGSKSGNTASLTVSGLQAEDEADYYCSSYTSSSPVVFGGGTKLTVL
B3: Ab 15 (Fc fusion)
VH: QVQLVQSGGGLVKPGRSLRLSCTASGFTFGDYAMSWFRQAPGKGLEWVGFIRSKAYGGTTGYAASVKGRFTISRDDSKSIAYLQMNSLKTEDTAVYYCTTADDDMDVWGKGTTVTVSS
VL: NFMLTQPHSVSESPGKTVTISCTRSSGTIASNYVQWYQQRPGSAPTTVIYEDNQRPSGVPDRFSGSIDRSSNSASLTISGLTPDDEADYYCQSYDTSNHYVFGTGTKVTVL
B4: Ab 18 (scFv, V domains shown)
VH: EVQLVQSGGGVVQPGRSLRVSCAASGFSFSRYGMHWVRQAPGKGLEWVAFIRHDGSKKYYADSVEGRFTISRDNSRNTVSLEMNSLRGEDTAVYYCAKDGRLEAALDDWGQGTLVTVSS
VL: NFMLTQPHSMSGSAGKTVTVSCIRSSGSIANNFVQWYQQRPGSAPTTVIYEDNQRPSGVPDRFSGSIDSSSNSASLTISGLKTEDEADYYCQSYDSSNLVFGGGTRLTVL
B5: Ab 27 (Fc fusion)
VH: QVQLVQSGTEVKKPGASVKVSCKASGYSFTGSHLHWVRQAPGQGLEWMGWINPDSGVINYAQKFQGRVTLTRDTSISTAYMELSGLRSDDTAVYYCARDKAIGYVWALDYWGQGTLVTVSS
VL: QSALTQPPSVSGSPGQSVTISCTGTSSDVGTYNRVSWYQQPPGKAPKLMIYEVSNRPSGVSNRFSGSKSGNTASLTISGLQAEDEADYYCSSYTRTFTYVFGTGTKVTVL
B6: Ab 25 (Fc fusion)
VH: QVQLVQSGGGLVQPGGSLRLSCAASGFTFSSYWMSWVRQAPGKGLEWVANIKQDGSEKYYVDSVKGRFTISRDNAKNSLYLQMNSLRAEDTAVYYCARGFYYYGAFDIWGQGTTVTVSS
VL: NFMLTQPHSVSESPGKTVTISCTGSSGSIASNYVQWYQQRPGSAPTTVIYEDNQRPSGVPDRFSGSIGSSSNSASLTISGLKTEDEADYYCQSYDSSNHWVFGGGTKLTVL
B7: Ab 20 (scFv, V domains shown)
VH: QVQLVQSGGGSVKPGGSLRLSCAASGYRLSDYYMHWVRQAPGKGLEWVANIKQDGSEKYYVDSVKGRFTISRDNAKNSLYLQMNSLRAEDTAVYYCARVRGWSRGYFDYWGQGTLVTVSS
VL: NFMLTQPHSVSESPGKTVTISCTGSSGSIASNYVQWYQQRPGSAPTTVIYEDNQRPSGVPDRFSGSIDSSSNSASLLISGLKTEDEADYYCQSYDSSNHWVFGGGTKLTVL
B8: Ab 13 (scFv, V domains shown)
VH: QVTLKESGPKLVKPTQTLTLTCTFSGFSLSTSGVGVGWIRQPPGKALEWLALIYWDDDKRYSPSLKSRLTIAKDTSKYQVVLTMTNMDPVDTATYYCARISGSGYFYPFDIWGQGTMVTVSA
VL: NFMLTQPHSVSESPGKTVTISCTRSSGSIASNYVQWYQQRPGSAPTTVIYEDNQRPSGVPDRFSGSIDSSSNSASLTISGLKTEDEADYYCQSYDSSNLWVFGGGTKLTVL
B9: Ab 16 (scFv, V domains shown)
VH: QVQLVQSGGGVVQPGRSLRLSCAASGFTFSNYGMHWVRQAPGKGLEWVALIWERGSKKDYADSVKGRFTVSRDNSKNTLYLQMNSLRPEDTAVYFCAREGISMTGAEYFQHWGQGTLVTVSS
VL: QSVLTQPPSVSGSPGQRVTMSCTGSSSNIGAGYDVHWYQQVPGAAPRLLIYGTNNRPSGVPDRFSGSKSGTSASLTITGLQAEDEADYYCQSYDNSLTDPYVFGTGTKVTVL
B10: Ab 23 (Fc fusion)
VH: EVQLVQSGAEVKKPGSSVKVSCRSSGGTFSTYGITWVRQAPGQGLEWMGRIIPSLGIPNYAQKFQGRVTITADTSVSTAWMELSSLESDDTAIYYCARENIDLATNDFWGQGTLVTVSS
VL: QSALTQPPSASGSPGQSVTISCTGTSRDIGAYGYVSWYQQVPGKAPKLIIYEVRNRPSGVSSRFSGSKSGNTASLTISGLQAEDEADYYCSSYTSSSTLDVVFGGGTKLTVL

These binders were tested against RBD-biotin (assay: BLI).

Row | Binder | Kd [pM]
1 | B1 | 882
2 | B2 | 1480
3 | B3 | 6610
4 | B4 | 2310
5 | B5 | 906
6 | B6 | 223
7 | B7 | 1900
8 | B8 | 922
9 | B9 | 959
10 | B10 | < 1
